# T1: human GPC1 on cells (T3M4, KLM1, H8, 2B9) (human) (UniProt P35052)
# T1 sequence (looked up): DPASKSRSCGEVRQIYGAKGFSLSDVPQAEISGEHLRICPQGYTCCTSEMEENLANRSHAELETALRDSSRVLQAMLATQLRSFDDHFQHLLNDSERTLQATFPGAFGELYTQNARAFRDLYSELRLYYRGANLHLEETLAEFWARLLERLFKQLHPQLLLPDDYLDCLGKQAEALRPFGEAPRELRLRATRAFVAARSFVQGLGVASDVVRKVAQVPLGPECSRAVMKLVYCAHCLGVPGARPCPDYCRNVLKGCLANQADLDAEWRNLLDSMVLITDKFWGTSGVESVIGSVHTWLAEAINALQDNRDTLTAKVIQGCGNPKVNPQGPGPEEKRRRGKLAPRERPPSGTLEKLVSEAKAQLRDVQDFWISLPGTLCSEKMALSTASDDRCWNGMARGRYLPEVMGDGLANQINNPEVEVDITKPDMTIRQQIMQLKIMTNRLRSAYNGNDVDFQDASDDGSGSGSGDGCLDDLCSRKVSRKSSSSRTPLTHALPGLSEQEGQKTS
# Experiments:
# [1] = target: T1, human GPC1 on cells (T3M4, KLM1, H8, 2B9) (human); test: flow cytometry on T3M4 pancreatic cancer cells, non-specific control IgG, goat anti-mouse IgG-PE
# [2] = target: T1, human GPC1 on cells (T3M4, KLM1, H8, 2B9) (human); test: cell-based or functional assay
MFI [1],"cytolytic activity against T3M4 cells, difference to D4-IgG4 hinge-CD8 TM CAR T cells [2] [%]",Molecule,killing ability at high E:T ratio [2] [%]
7,–,Neg ctrl (antibody),–
–,10,D4-IgG4 hinge-CD28 TM CAR (protein) HMQVQLVESGGGLVQPGGSLRLSCVASGYSYSIGYMAWFRQAPGKERAWVASRYTGDGGAVFDDAVKGRFTTSQESAGNTFDLQMDSLKPEDTAMYYCAAKGPGFGRWEYWGRGTQVTVSSTSESKYGPPCPPCPFWVLVVVGGVLACYSLLVTVAFIIFWVKRGRKKLLYIFKQPFMRPVQTTQEEDGCSCRFPEEEEGGCELRVKFSRSADAPAYQQGQNQLYNELNLGRREEYDVLDKRRGRDPEMGGKPRRKNPQEGLYNELQKDKMAEAYSEIGMKGERRRGKGHDGLYQGLSTATKDTYDALHMQALPPR,91.6
